Data: patent publication US7041871

Biological target: T1, recombinant soluble human CD4 (human, UniProt P01730 26-396, limits assumed)
T1 construct: Soluble recombinant CD4 used for ELISA and SPR/BIAcore; also called rCD4; sCD4
Assay: BIAcore; rCD4 coupled to chip, mAb flowed (avidity)
Method: The rate and equilibrium constants presented in Table 19 were determined with a BIAcore, using antigen (rCD4) coupled to the sensor chip and flowing mAb over. These constants were derived from at least three independent experiments using purified mAbs.

kon: 11000 M⁻¹ s⁻¹
B1: 6G5.1 (antibody, human IgG1, V domains shown)
VH: QVQLQQWGAGLLKPSETLSLTCAVYGGSFSGYYWSWIRQPPGKGLEWIGEINHSGSTNYNPSLKSRVTISVDTSKNQFSLKLSSVTAADTAVYYCARVINWFDPWGQGTLVTVSS
VL: DIQMTQSPSSVSASVGDRVTITCRASQDISSWLAWYQHKPGKAPKLLIYAASSLQSGVPSRFSGSGSGTDFTLTISSLQPEDFATYYCQQANSFPYTFGQGTKLEIK
notes: Human IgG1 kappa from a hybridoma of an HC2/KCo5 mouse; VH4-34/JH5, VkL19/Jk2; also called GGS
